Test results as given in patent US20200317802A1 (Merck KGaA, published 2020).

T1: recombinant human ADAMTS5 (R&D Systems cat #2198-AD) (human, UniProt Q9UNA0 262-622, limits assumed)
T1 construct: bought protein
T1 sequence: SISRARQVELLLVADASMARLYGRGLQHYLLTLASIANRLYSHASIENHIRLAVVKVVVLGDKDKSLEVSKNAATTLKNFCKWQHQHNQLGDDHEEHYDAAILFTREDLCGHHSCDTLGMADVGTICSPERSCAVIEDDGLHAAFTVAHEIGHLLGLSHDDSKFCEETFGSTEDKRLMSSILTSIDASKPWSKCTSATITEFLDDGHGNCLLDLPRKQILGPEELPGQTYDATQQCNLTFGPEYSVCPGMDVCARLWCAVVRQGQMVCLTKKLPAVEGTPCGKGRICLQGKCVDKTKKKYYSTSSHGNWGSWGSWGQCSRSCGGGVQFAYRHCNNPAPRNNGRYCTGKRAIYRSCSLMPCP


Assays:
[1] = molecular target: T1, recombinant human ADAMTS5 (R&D Systems …); test: binding ELISA, periplasmic extract on coated human ADAMTS5
Protocol: In a first step, periplasmic extracts were tested for binding to recombinant human ADAMTS5 by binding ELISA. In brief, recombinant human ADAMTS5 (R&D Systems, Minneapolis, US; cat #2198-AD) at a concentration of 1 μg/ml was coated on 384-well MaxiSorp plates (Nunc, Wiesbaden, Germany). Wells were blocked with a casein solution (1%). After addition of a 10-fold dilution of the periplasmic extracts, Nanobody binding was detected using a mouse anti-Flag-HRP conjugate (Sigma, St. Louis, US) and a subsequent enzymatic reaction in the presence of the substrate esTMB (3,3′,5,5′-tetramentylbenzidine) (SDT, Brussels, Belgium). Clones showing ELISA signals higher than the sum of the average signal of the irrelevant Nanobody controls and 3 times the standard deviation of the irrelevant Nanobody controls were considered to encode positive human ADAMTS5 binding Nanobodies.

[2] = molecular target: T1, recombinant human ADAMTS5 (R&D Systems …); test: cell-based or functional assay
[3] = molecular target: T1, recombinant human ADAMTS5 (R&D Systems …); test: cell-based or functional assay; remark: listed apart in the source

Binder	binding ELISA (OD 450 nm) [1] [OD 450 nm]	FRET assay % inh, periplasmic extract [2] [%]	FRET assay vi (U/min), periplasmic extract [2] [U/min]	Human AlphaLISA % inhibition [3] [%]	Human AlphaLISA IC50 [3] [nM]
Nanobody 2A02 (VHH, tagged as tested (anti-Flag detection, IMAC); also called 02A02) VHH: EVQLVESGGGLVQPGGSLRLSCAASRRTFSSYVMAWFRQAPGKEREFVAAISRSGDSTYYYDSLEGRFTISRDNAKNTVHLQMNSLKPEDTAVYICAASRAPSFRTIDAINYYDYWGQGTLVTVSS	1.65	91	2	99	4.3
Nanobody 2D12 (VHH, tagged as tested (anti-Flag detection, IMAC); also called 02D12) VHH: EVQLVESGGGLVQAGDSLRLSCAASGRTFSTYFVGWFRQAPGKERDFVAAISRNGARTYYYDSVAGLFTISRDNAKNTVYLQMSSLKPEDTAVYYCAAARISPSDPSNEDGYDYWGQGTLVTVSS	1.35	90	2	100	0.69
Nanobody 2C10 (VHH, tagged as tested (anti-Flag detection, IMAC); also called 02C10) VHH: EVQLVESGGGLVQAGGSLRLSCATSGFTFSPYYMGWFRQAPGKERDFVAAITRSRGTTYYLDSTEGRFTISRDNAKNTMYLQMNSLNPEDTAVYYCAAGRSPGDPSRTYLYEYWGQGTLVTVSS	1.63	90	2	100	0.45
Nanobody 3D02 (VHH, tagged as tested (anti-Flag detection, IMAC); also called 03D02) VHH: EVQLVESGGGLVQAGASLRLSCATSGFTFSPYYMGWFRQAPGKERDFVAAISWSRGILYYTDSTEGRFTISRDNAKNTMYLQMDNLNPEDTAVYYCAASRSPGDPSRTYLYDYWGQGTLVTVSS	2.58	111	-2	100	0.22
Nanobody 2G01 (VHH, tagged as tested (anti-Flag detection, IMAC); also called 02G01) VHH: EVQLVESGGGLVQAGGSLRLSCAASGRTTFSSYAMGWFRQAPGKERAFVATIWSGGLTVYADSAKGRFTISRDNAKNTVYLQMNSLRPEDTAVYYCAAEAVGTYYTPDGWTYWGQGTLVTVSS	1.71	55	10		
Nanobody 3B03 (VHH, tagged as tested (anti-Flag detection, IMAC); also called 03B03) VHH: EVQLVESGGDLVQPGGSLRLSCAASGSDVVVNDMGWYRQAPGKQRELVADITTGGRTNYADSVKGRFTISRDNVKNTVYLQMNSLKPEDTAVYYCNAQVGDSDDDVWYAYWGQGTLVTVSS	2.29	93	2	100	12
Nanobody 7B11 (VHH, tagged as tested (anti-Flag detection, IMAC); also called 07B11) VHH: EVQLVESGGGLVQPGGSLRLSCAASGSIFSINVMGWYRQAPGKQRELVAAIISGGRTNYADSVKGRFTISRDNSKNTVYLQMNSLRPEDTAVYYCNAEVDAGIYAYGYWGQGTLVTVSS	0.368	90	2	100	3.6
Nanobody 9A05 (VHH) VHH: EVQLVESGGGFVQAGGSLRLSCAASRRTISSGTMGWFRQAPGKEREFVAAIRWSSGITFYPDSVEGRFTISGDNAKNTVSLQMNSLKPEDTAVYYCAADRSALRDPSFEVNYEYWGRGTLVTVSS		113	-3	100	0.32
Nanobody 9D09 (VHH) VHH: EVQLVESGGGLVQAGGSLRLSCAASGLTFSSYTMGWFRQAPGQEREFVSAISWNTFTTYYVDSVKDRFTVSRDNAKNTLYLRMNSLKPEDTAVYYCAAAGGSPRQHEPYEYRVWGQGTLVTVSS		102	0	100	2.6
Nanobody 9D10 (VHH) VHH: EVQLVESGGGLVQAGGSLRLSCAASGRALSSSIMGWFRQAPGKEREFVAAITWSGGRAYYADVSDFEKGRFTISRDNGKNTVNLQMKGLKPEDTAVYYCAAALAIPVTMSPHEYPYWGQGTLVTVSS		111	-2	100	0.97
Nanobody 13E02 (VHH) VHH: EVQLVESGGGLVQAGGSLRLSCVASGSIFSIDAMGWYRQAPGKERELVASVTTGASPNYGDSVTGRFTASRDRAKNALYLQMNSLKPEDTAVYYCNLIMTIPGGSQIMYWGQGTLVTVSS		99	0	100	2.2
Nanobody 3F04 (VHH, tagged as tested (anti-Flag detection, IMAC); also called 03F04) VHH: EVQLVESGGGSVQAGGSLRLSCVASGRYPMAWFRQAPGKEREFVAGVSWGGDRTYYADSVQGRFTVSRDYAKNTLYLQMNSLKPEDAAVYYCAGDPWGRLFRVKDNYSDWGQGTLVTVSS	2.56	8	19		
